Target: Hemiselmis andersenii phycobiliprotein α subunit Haα^OB1 (open-braced form) (Hemiselmis andersenii)
Assay: crystal structure

Substance: Hemiselmis andersenii phycobiliprotein α subunit Haα^OB1 (open-braced form) (natural protein)
- stoichiometry N: 2
